Experimental data: US20240336661A1, “PEPTIDES DERIVED FROM RUMINOCOCCUS TORQUES” (University of Copenhagen, priority 2021, published 2024)

Legend:
Caco-2 cell line = test: Intestinal barrier gene expression in Caco-2 cells (hypoxia/reoxygenation); format: cell-based, human; settings: Caco-2, q-PCR
Protocol: FIG. 13. […] The cells were treated with various doses of RUCILP2, and cells were collected for q-PCR quantification on indicated genes. For integrin inhibitor treatment, cells were treated with 10 uM of cRGDyK (Selleckchem, #S7844) for 10 minutes and washed with PBS before treated with RUCILP2. Data are presented as mean+/−SEM of one representative experiment done in technical triplicate. Statistical significance was determined by unpaired two-tailed Student's t-test. *, p<0.05 vs 0 nM RUCILP2.
Commercially available Caco-2 cells (ATCC, #HTB-37) were seeded on 12-well plates under EMEM medium (Eagle's Minimum Essential Medium, ATCC, #30-2003), supplemented with 20% FBS (Fetal Bovine Serum, Fisher Scientific, #11550356) and 1% Penicillin-Streptomycin (Fisher Scientific, #11548876). Cell cultures were maintained in a humidified chamber with 5% CO2 at 37° C., and culture media were changed every 2-3 days.
At 70% confluence, to induce the hypoxia/reoxygenation (H/R) cell culture model, Caco-2 cells were cultured in EMEM medium (glucose and FBS free) and exposed to hypoxia conditions (94% N2, 5% C02 and 1% O2) at 37° C. for 120 minutes. Next, cells were treated for 24 hours with indicated concentrations of recombinant RUCILP2 or commercial recombinant irisin (Sigma, #SRP8039-10UG and Phoenix pharmaceuticals, #067-29A) or PBS immediately at the beginning of reoxygenation. […]

perfused rat colon = test: Hormone release in the isolated perfused rat colon
Text: (§1) FIG. 14. Recombinant RUCILP2 stimulates glucagon like peptide-1 (GLP-1) secretion in perfused rat colon when RUCILP2 is perfused through the luminal route. Left, GLP-1 secretion from the isolated perfused rat colon in the presence of RUCILP2, means±SEM, n=6 in each group. Right, baseline subtracted total GLP-1 output during 10-min (minutes 12-21) luminal infusions. **, p<0.01 using Student's t test.
as §1, with “15.” for “14.”, “Peptide-YY (PYY)” for “glucagon like peptide-1 (GLP-1)”, “PYY” for “GLP-1”
as §1, with “16.” for “14.”, “somatostatin” for “glucagon like peptide-1 (GLP-1)”, “Somatostatin” for “GLP-1”, “*, p<0.05” for “**, p<0.01”
Animals: Male Wistar rats (˜250 g) were obtained from Janvier (Le Genest-Saint-Isle, France) and housed with two to four rats per cage. Rats were allowed one week of acclimatization kept on a 12:12 h light/dark cycle with ad libitum access to water and standard chow.
Isolation and perfusion of the proximal rat colon: At the day of experiment, non-fasted rats were anaesthetized with a subcutaneous injection of Hypnorm/Midazolam (0.0158 mg fentanyl citrate+0.5 mg fluanisone+0.25 mg midazolam/100 g). When lack of reflexes was established, rats were placed on a heating plate (37° C.) and the abdominal cavity opened. […] A plastic tube was placed in the lumen of the colon, and the colon was gently flushed with isotonic saline (room temperature) to remove luminal contents. Throughout the experimental protocol, a constant luminal flow of saline was applied via a syringe pump (0.15 ml/min). […] A metal catheter was inserted into vena portae to collect the venous effluent. […] As an indicator of health of the colon, perfusion pressure was monitored throughout the experiment. […]
Hormone measurement: Peptide hormones were measured using in-house radioimmunoassays: total GLP-1 (the sum of 7-36NH2, 9-36NH2 and potential mid-terminal cleaved fragments) was measured using a C-terminal specific antibody targeting amidated forms of GLP-1 (code no. 89390). Total PYY (PYY1-36+PYY3-36) was measured with a porcine antiserum (cat. no T-4093; Bachem). Somatostatin was measured using a side-viewing antibody (code no. 1758-5), detecting all bioactive forms of somatostatin.

B1: RUCILP2: 87 amino acid irisin-like polypeptide cleaved from the Ruminococcus torques FNDC5-like protein RUMTOR_00181; recombinant, 6-His-tagged from E. coli (protein)
chain: APVDVKVSEITETSAKASWKNAADGKEAAGYNVYVDGVKLNKELLTEASCGLTNLKAETTYFVEVTAVDAAGNESVKSEKVTFKTLK
modifications: 6-His tag; Ruminococcus torques
notes: 87 amino acid irisin-like polypeptide cleaved from the Ruminococcus torques FNDC5-like protein RUMTOR_00181; recombinant, 6-His-tagged from E. coli
expression of genes involved in intestinal integration (Caco-2 cell line): increases expression
gut luminal release of Glucagon-like-peptide-2 (GLP-2) (perfused rat colon; luminal infusion): stimulatory effects
GLP-1 secretion (perfused rat colon; luminal perfusion): stimulates
Peptide-YY (PYY) secretion (perfused rat colon; luminal perfusion): stimulates
somatostatin secretion (perfused rat colon; luminal perfusion): stimulates
